From article PMC7156744, “CdbA is a DNA-binding protein and c-di-GMP receptor important for nucleoid organization and segregation in Myxococcus xanthus” (Nature Communications, 2020)
Residue numbers refer to the chain shown, from its start.

What was measured:
[1] = target: T1, CdbA K8A/S10A-His6 K59A;S61A (Myxococcus xanthus DK1622) (UniProt Q1D489); assay: EMSA; conditions: 10x buffer: 380 mM HEPES, 380 mM NaCl, 50 mM MgCl2, 50% glycerol, 10 mM DTT, 15 ng/ul poly(dI-dC), 50 ng probe, 30 C 30 min, 10% PAGE 1x TBE 4 C, pH not …
T1 sequence: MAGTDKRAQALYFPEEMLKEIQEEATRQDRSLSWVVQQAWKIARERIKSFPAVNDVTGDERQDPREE

[2] = target: T2, CdbA R27A/R30A-His6 R78A;R81A (Myxococcus xanthus DK1622) (UniProt Q1D489); assay: EMSA; conditions: 10x buffer: 380 mM HEPES, 380 mM NaCl, 50 mM MgCl2, 50% glycerol, 10 mM DTT, 15 ng/ul poly(dI-dC), 50 ng probe, 30 C 30 min, 10% PAGE 1x TBE 4 C, pH not …
T2 sequence: T1 sequence with A8K, A10S, R27A, R30A

## ACTTGGGTCTCCGGGGCGGATTCGGGGTGACGACCTGAACACACCTGGGCCGTTATCCGACAGACTCCCAAGTGGGTCAACGGTTTCCAAGGACTCATTCCGAGGTCGCACGGTCCGTCCCCGTGCTCGTCCAGTTGCACGTAAGCTGTGCAACCATGCGCGAAAAAGGAAACGCCCCGGACTCCACGAGGAAGTCCGGGGCGCTTCGGAAAGAGGGACCGCCTAGAGAAATCTCCAGGCGGGCCCGTGG (double strand) [cdbAB promoter]
[1]
  binding: no binding
[2]
  binding: no binding
